Reference: article PMC3258384 (Journal of Molecular Biology, 2011)

Biological target: Human calmodulin (human, UniProt P0DP23 1-149)
Experiment: circular dichroism

binding result: binds
B1: pCaN peptide, the CaM binding region in the RD of αCaN (peptide)
peptide: ARKEVIRNKIRAIGKMARVFSVLR
